Columns and labels:
[1] = target: B1_N67I, S215P loop (RSV B1) (UniProt O36634); test: quantitative Octet, CR9501 on sensor, culture supernatant
B1_N67I, S215P (RSV B1) = B1_N67I, S215P (RSV B1) (UniProt O36634); test: as above
A2_F24 VI56IV (RSV A2) = A2_F24 VI56IV (RSV A2) (UniProt P03420); test: Octet BLI endpoint, CR9501 on sensor, culture supernatant

Q: Which % concentration measured with CR9501 after 5 days at 4 C relative to day of harvest [1] does the source give for CR9501 (antibody) here?
A: The % concentration measured with CR9501 after 5 days at 4 C relative to day of harvest was 108%.

Q: And the % concentration measured with CR9501 after 5 days at 4 C relative to day of harvest (B1_N67I, S215P (RSV B1))?
A: Its % concentration measured with CR9501 after 5 days at 4 C relative to day of harvest is 90.9%.

Q: What about the % CR9501 binding after 5 days at 4 C relative to day 1 (A2_F24 VI56IV (RSV A2)) of the same substance?
A: Its % CR9501 binding after 5 days at 4 C relative to day 1 is 54%.
